Data from IntAct's records for PubMed 21223507.

B1: Eukaryotic translation initiation factor 2-alpha kinase 1 (Mus musculus), Q9Z2R9 (parent)
chain: MLGGSSVDGERDTDDDAAGAVAAPPAIDFPAEVSDPKYDESDVPAELQVLKEPLQQPTFPFLVANQLLLVSLLEHLSHVHEPNPLHSKQVFKLLCQTFIKMGLLSSFTCSDEFSSLRLHHNRAITHLMRSAKERVRQDPCQDNSYMQKIRSREIAFEAQTSRYLNEFEELAILGKGGYGRVYKVRNKLDGQHYAIKKILIKSATKTDCMKVLREVKVLAGLQHPNIVGYHTAWIEHVHVVQPQDRVPIQLPSLEVLSEQEGDRDQGGVKDNESSSSIVFAELTPEKEKPFGESEVKNENNNLVSYTANLVVRNSSESESSIELQEDGLTDLSVRPVVRHQLPLGHSSELEGNFTSTDESSEGNLNLLGQTEVRYHLMLHIQMQLCELSLWDWITERNKRSREYVDEAACPYVMASVATKIFQELVEGVFYIHNMGIVHRDLKPRNIFLHGPDQQVKIGDFGLACADIIQNADWTNRNGKGTRTHTSRVGTCLYASPEQLEGSQYDAKSDMYSLGVILLELFQPFGTEMERATVLTGVRTGRIPESLSKRCPVQAKYIQLLTGRNVSQRPSALQLLQSELFQTTGNVNLTLQMKIIEQEKEIEELKKQLSLLSQDRGLKR

Variants of: B1
Details: with if2a_mouse Eif2s1, Q6ZWX6
Chain of if2a_mouse Eif2s1, Q6ZWX6 (Q6ZWX6 whole entry): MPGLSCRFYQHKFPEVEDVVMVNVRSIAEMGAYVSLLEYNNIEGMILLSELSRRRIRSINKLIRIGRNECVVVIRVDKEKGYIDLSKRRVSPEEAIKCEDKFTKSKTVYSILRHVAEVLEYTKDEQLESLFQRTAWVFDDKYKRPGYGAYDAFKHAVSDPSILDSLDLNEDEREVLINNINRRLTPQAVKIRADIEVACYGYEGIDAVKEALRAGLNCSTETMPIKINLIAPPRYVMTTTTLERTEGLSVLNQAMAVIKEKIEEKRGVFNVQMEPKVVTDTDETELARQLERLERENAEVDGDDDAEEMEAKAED

Row | effect of a mutation on the interaction | Variant
1 | decreasing interaction | T485A

Variants of: B1
Details: with if2a_mouse Eif2s1, Q6ZWX6
Remark: another data set of the same source

Row | effect of a mutation on the interaction | Variant
2 | disrupting interaction | S502A

Variants of: B1
Details: with if2a_mouse Eif2s1, Q6ZWX6
Remark: another data set of the same source

Row | effect of a mutation on the interaction | Variant
3 | disrupting interaction | K196R

Variants of: B1
Details: with if2a_mouse Eif2s1, Q6ZWX6
Remark: another data set of the same source

Row | effect of a mutation on the interaction | Variant
4 | decreasing interaction | Y193F

Variants of: B1
Details: with if2a_mouse Eif2s1, Q6ZWX6
Remark: another data set of the same source

Row | effect of a mutation on the interaction | Variant
5 | disrupting interaction | T490A

Variants of: B1
Details: with if2a_mouse Eif2s1, Q6ZWX6
Remark: another data set of the same source

Row | effect of a mutation on the interaction | Variant
6 | decreasing interaction | H120A
7 | decreasing interaction | H119A
